Results from paper PMC11472156, “Synergistic regulation of fusion pore opening and dilation by SNARE and synaptotagmin-1” (Journal of Molecular Cell Biology, 2024).

B1: Syt1 C2B domain-containing C2AB fragment, C2AB (A418C), Cy5-labeled (domain or fragment)
chain: KLGKLQYSLDYDFQNNQLLVGIIQAAELPALDMGGTSDPYVKVFLLPDKKKKFETKVHRKTLNPVFNEQFTFKVPYSELGGKTLVMAVYDFDRFSKHDIIGEFKVPMNTVDFGHVTEEWRDLQSAEKEEQEKLGDICFSLRYVPTAGKLTVVILEAKNLKKMDVGGLSDPYVKIHLMQNGKRLKKKKTTIKKNTLNPYYNESFSFEVPFEQIQKVQVVVTVLDYDKIGKNDAIGKVFVGYNSTGAELRHWSDMLANPRRPIAQWHTLQVEEEVDAMLCVKK
modifications: Sulfo-Cy5 maleimide label (labeling efficiency 34.5%-42%)
B2: C2AB_F349A (A418C), Cy5-labeled (domain or fragment)
chain: KLGKLQYSLDYDFQNNQLLVGIIQAAELPALDMGGTSDPYVKVFLLPDKKKKFETKVHRKTLNPVFNEQFTFKVPYSELGGKTLVMAVYDFDRFSKHDIIGEFKVPMNTVDFGHVTEEWRDLQSAEKEEQEKLGDICFSLRYVPTAGKLTVVILEAKNLKKMDVGGLSDPYVKIHLMQNGKRLKKKKTTIKKNTLNPYYNESFSFEVPAEQIQKVQVVVTVLDYDKIGKNDAIGKVFVGYNSTGAELRHWSDMLANPRRPIAQWHTLQVEEEVDAMLCVKK
modifications: Sulfo-Cy5 maleimide label (labeling efficiency 34.5%-42%)

Target: the molecule itself
Test: single-molecule fluorescence photobleaching step counting; 40 pM Cy5-labeled C2AB incubated 30 min at room temperature on a DiI-labeled supported lipid bilayer (15% DOPS, with or without 1% PIP2), no Ca2+; unbound protein removed; photobleaching steps per fluorescent spot fitted to a Poisson distribution and corrected for unlabeled fragments; printed numbers are with 1% PIP2

Row | Protein | stoichiometry N
1 | B1 | 6.85 molecules
2 | B2 | 3.03 molecules
